Key:
[1] = biological target: T1, human TF on the cell surface of tumor cells (human, UniProt P13726 33-295); assay: flow cytometry on MDA-MB-231 cells, antibody at 10 µg/mL; design: reference not given here
T1 construct: whole, on cells; Endogenous TF on TF-positive human tumor cell lines; also called cell surface TF
Method: (§1) The cells were washed with PBS twice to remove the unbound primary antibody, and the target cells were incubated with 200 μL PE-labeled secondary antibody (2 μg/mL) at 4° C. for 30 min. The cells were washed with PBS twice to remove the unbound secondary antibody, and finally the cells were re-suspended in 400 μL PBS.

[2] = biological target: T1, human TF on the cell surface of tumor …; assay: flow cytometry on MDA-MB-231 cells, antibody at 1 µg/mL
Method: as §1

[3] = biological target: T2, extracellular domain of human TF protein (human, UniProt P13726 34-251); assay: ELISA, coated TF extracellular domain
T2 construct: range 34-251; Limits 34-251 are stated for the immunogen; also called the extracellular domain protein of TF; TF antigen
Method: The antigen (the extracellular domain protein of TF) was diluted to 0.5 μg/mL with a coating solution, and was used to coat an ELISA plate overnight, at 100 μL/well and 4° C. The excessive antigen was removed by washing. The plate was blocked with 2% BSA at room temperature for 2 h, and then each of the 3-fold serial diluted monoclonal antibodies was added at 100 μL/well, and was incubated for 2 h at room temperature. The unbound antibodies were removed by washing, and an appropriate concentration of horseradish peroxidase-labeled anti-mouse secondary antibody was added at 100 μL/well, and incubated for 1 h at room temperature. The unbound secondary antibody was removed by washing, TMB chromogenic solution was added, and the color was developed to an appropriate color depth. 2M H₂SO₄ was added at 50 μL/well, to stop the chromogenic reaction, the absorbance at 450 nm was then determined, and the data was analyzed.
Firstly, the 20 humanized antibodies were determined for their affinity for the extracellular domain protein of TF by ELISA binding assay (The experimental method refers to Step \textcircled{4} of Example 1).

Row | Binder | MFI [1] | MFI [2] | EC50 [3] [nM]
1 | TF-mAb-H30 (antibody, V domains shown, Humanized) VH: EVQLVQSGAEVKKPGESLKISCKGSGYSFTSYWMNWVRQMPGKGLEWMGMIYPADSETRLNQKFKDKATLSVDKSISTAYLQWSSLKASDTAMYYCAREDYGSSDYWGQGTTVTVSS VL: EIVLTQSPATLSLSPGERATLSCSASSSVSYMNWYQQKPGQAPRIWIYGISNLASGIPARFSGSGSGTDFTLTISSLEPEDFAVYYCQQKSSFPWTFGGGTKVEIK | 3240 | 2930 | 0.0147
2 | TF-mAb-H29 (antibody, V domains shown, Humanized) VH: EVQLVQSGAEVKKPGESLKISCKGSGYSFTSYWMNWVRQMPGKGLEWMGMIYPADSETRLNQKFKDQATLSVDKSISTAYLQWSSLKASDTAMYYCAREDYGSSDYWGQGTTVTVSS VL: EIVLTQSPATLSLSPGERATLSCSASSSVSYMNWYQQKPGQAPRIWIYGISNLASGIPARFSGSGSGTDFTLTISSLEPEDFAVYYCQQKSSFPWTFGGGTKVEIK | 3580 | 2960 | 0.0178
3 | TF-mAb-H31 (antibody, V domains shown, Humanized) VH: EVQLVQSGAEVKKPGESLKISCKGSGYSFTSYWMNWVKQMPGKGLEWMGMIYPADSETRLNQKFKDKATLSVDKSISTAYLQWSSLKASDTAMYYCAREDYGSSDYWGQGTTVTVSS VL: EIVLTQSPATLSLSPGERATLSCSASSSVSYMNWYQQKPGQAPRIWIYGISNLASGIPARFSGSGSGTDFTLTISSLEPEDFAVYYCQQKSSFPWTFGGGTKVEIK | 3470 | 3080 | 0.0145
4 | TF-mAb-H34 (antibody, V domains shown, Humanized) VH: EVQLVQSGAEVKKPGESLKISCKGSGYSFTSYWMNWVRQMPGKGLEWMGMIYPADSETRLNQKFKDQATLSVDKSISTAYLQWSSLKASDTAMYYCAREDYGSSDYWGQGTTVTVSS VL: EIVLTQSPATLSLSPGERATLSCSASSSVSYMNWYQQKPGQSPRIWIYGISNLASGVPARFSGSGSGTDFTLTISSLEPEDFAVYYCQQKSSFPWTFGGGTKVEIK | 3270 | 2460 | 0.0154
5 | TF-mAb-H35 (antibody, V domains shown, Humanized) VH: EVQLVQSGAEVKKPGESLKISCKGSGYSFTSYWMNWVRQMPGKGLEWMGMIYPADSETRLNQKFKDKATLSVDKSISTAYLQWSSLKASDTAMYYCAREDYGSSDYWGQGTTVTVSS VL: EIVLTQSPATLSLSPGERATLSCSASSSVSYMNWYQQKPGQSPRIWIYGISNLASGVPARFSGSGSGTDFTLTISSLEPEDFAVYYCQQKSSFPWTFGGGTKVEIK | 3020 | 2930 | 0.0105
6 | TF-mAb-H36 (antibody, V domains shown, Humanized) VH: EVQLVQSGAEVKKPGESLKISCKGSGYSFTSYWMNWVKQMPGKGLEWMGMIYPADSETRLNQKFKDKATLSVDKSISTAYLQWSSLKASDTAMYYCAREDYGSSDYWGQGTTVTVSS VL: EIVLTQSPATLSLSPGERATLSCSASSSVSYMNWYQQKPGQSPRIWIYGISNLASGVPARFSGSGSGTDFTLTISSLEPEDFAVYYCQQKSSFPWTFGGGTKVEIK | 3090 | 3040 | 0.0234
7 | TF-mAb-H32 (antibody, V domains shown, Humanized) VH: QVQLVQSGAEVKKPGASVKVSCKASGYSFISYWMNWVRQAPGQGLEWIGMIYPADSETRLNQKFKDRATLTVDKSTSTAYMELSSLRSEDTAVYYCAREDYGSSDYWGQGTTVTVSS VL: EIVLTQSPATLSLSPGERATLSCSASSSVSYMNWYQQKPGQAPRIWIYGISNLASGIPARFSGSGSGTDFTLTISSLEPEDFAVYYCQQKSSFPWTFGGGTKVEIK | 3010 | 2400 | 0.0168
8 | TF-mAb-H33 (antibody, V domains shown, Humanized) VH: QVQLVQSGSELKKPGASVKVSCKASGYSFISYWMNWVRQAPGQGLEWIGMIYPADSETRLNQKFKDRAVLSVDKSVSTAYLQICSLKAEDTAVYYCAREDYGSSDYWGQGTTVTVSS VL: EIVLTQSPATLSLSPGERATLSCSASSSVSYMNWYQQKPGQAPRIWIYGISNLASGIPARFSGSGSGTDFTLTISSLEPEDFAVYYCQQKSSFPWTFGGGTKVEIK | 2840 | 2420 | 0.0189
9 | TF-mAb-H37 (antibody, V domains shown, Humanized) VH: QVQLVQSGAEVKKPGASVKVSCKASGYSFISYWMNWVRQAPGQGLEWIGMIYPADSETRLNQKFKDRATLTVDKSTSTAYMELSSLRSEDTAVYYCAREDYGSSDYWGQGTTVTVSS VL: EIVLTQSPATLSLSPGERATLSCSASSSVSYMNWYQQKPGQSPRIWIYGISNLASGVPARFSGSGSGTDFTLTISSLEPEDFAVYYCQQKSSFPWTFGGGTKVEIK | 2990 | 2460 | 0.0173
10 | TF-mAb-H38 (antibody, V domains shown, Humanized) VH: QVQLVQSGSELKKPGASVKVSCKASGYSFISYWMNWVRQAPGQGLEWIGMIYPADSETRLNQKFKDRAVLSVDKSVSTAYLQICSLKAEDTAVYYCAREDYGSSDYWGQGTTVTVSS VL: EIVLTQSPATLSLSPGERATLSCSASSSVSYMNWYQQKPGQSPRIWIYGISNLASGVPARFSGSGSGTDFTLTISSLEPEDFAVYYCQQKSSFPWTFGGGTKVEIK | 3150 | 2870 | 0.0178
11 | TF-mAb-H40 (antibody, V domains shown, Humanized) VH: EVQLVQSGAEVKKPGESLKISCKGSGYSFTSYWMNWVRQMPGKGLEWMGMIYPADSETRLNQKFKDKATLSVDKSISTAYLQWSSLKASDTAMYYCAREDYGSSDYWGQGTTVTVSS VL: DIQLTQSPSSLSASVGDRVTITCSASSSVSYMNWYQQKPGKSPKIWIYGISNLASGVPSRFSGSGSGTDFTLTISSLQPEDFATYYCQQKSSFPWTFGGGTKVEIK | 3310 | 3180 | 0.0131
12 | TF-mAb-H39 (antibody, V domains shown, Humanized; also called humanized antibody TF-mAb-H39) VH: EVQLVQSGAEVKKPGESLKISCKGSGYSFTSYWMNWVRQMPGKGLEWMGMIYPADSETRLNQKFKDQATLSVDKSISTAYLQWSSLKASDTAMYYCAREDYGSSDYWGQGTTVTVSS VL: DIQLTQSPSSLSASVGDRVTITCSASSSVSYMNWYQQKPGKSPKIWIYGISNLASGVPSRFSGSGSGTDFTLTISSLQPEDFATYYCQQKSSFPWTFGGGTKVEIK | 3380 | 3180 | 0.0125
13 | TF-mAb-H41 (antibody, V domains shown, Humanized) VH: EVQLVQSGAEVKKPGESLKISCKGSGYSFTSYWMNWVKQMPGKGLEWMGMIYPADSETRLNQKFKDKATLSVDKSISTAYLQWSSLKASDTAMYYCAREDYGSSDYWGQGTTVTVSS VL: DIQLTQSPSSLSASVGDRVTITCSASSSVSYMNWYQQKPGKSPKIWIYGISNLASGVPSRFSGSGSGTDFTLTISSLQPEDFATYYCQQKSSFPWTFGGGTKVEIK | 3610 | 3000 | 0.0134
14 | TF-mAb-H42 (antibody, V domains shown, Humanized) VH: QVQLVQSGAEVKKPGASVKVSCKASGYSFISYWMNWVRQAPGQGLEWIGMIYPADSETRLNQKFKDRATLTVDKSTSTAYMELSSLRSEDTAVYYCAREDYGSSDYWGQGTTVTVSS VL: DIQLTQSPSSLSASVGDRVTITCSASSSVSYMNWYQQKPGKSPKIWIYGISNLASGVPSRFSGSGSGTDFTLTISSLQPEDFATYYCQQKSSFPWTFGGGTKVEIK | 3350 | 2970 | 0.0128
15 | TF-mAb-H43 (antibody, V domains shown, Humanized) VH: QVQLVQSGSELKKPGASVKVSCKASGYSFISYWMNWVRQAPGQGLEWIGMIYPADSETRLNQKFKDRAVLSVDKSVSTAYLQICSLKAEDTAVYYCAREDYGSSDYWGQGTTVTVSS VL: DIQLTQSPSSLSASVGDRVTITCSASSSVSYMNWYQQKPGKSPKIWIYGISNLASGVPSRFSGSGSGTDFTLTISSLQPEDFATYYCQQKSSFPWTFGGGTKVEIK | 3300 | 2820 | 0.0116
16 | TF-mAb-H45 (antibody, V domains shown, Humanized) VH: EVQLVQSGAEVKKPGESLKISCKGSGYSFTSYWMNWVRQMPGKGLEWMGMIYPADSETRLNQKFKDKATLSVDKSISTAYLQWSSLKASDTAMYYCAREDYGSSDYWGQGTTVTVSS VL: EIVLTQSPDFQSVTPKEKVTITCSASSSVSYMNWYQQKPDQSPKIWIYGISNLASGVPSRFSGSGSGTDFTLTINSLEAEDAATYYCQQKSSFPWTFGGGTKVEIK | 3480 | 3100 | 0.0138
17 | TF-mAb-H44 (antibody, V domains shown, Humanized; also called humanized antibody TF-mAb-H44) VH: EVQLVQSGAEVKKPGESLKISCKGSGYSFTSYWMNWVRQMPGKGLEWMGMIYPADSETRLNQKFKDQATLSVDKSISTAYLQWSSLKASDTAMYYCAREDYGSSDYWGQGTTVTVSS VL: EIVLTQSPDFQSVTPKEKVTITCSASSSVSYMNWYQQKPDQSPKIWIYGISNLASGVPSRFSGSGSGTDFTLTINSLEAEDAATYYCQQKSSFPWTFGGGTKVEIK | 3430 | 3200 | 0.012
